The record followed here is patent publication US10500174B2, “Pharmaceutical composition for preventing or treating degenerative brain disease” (SOONCHUNHYANG UNIVERSITY INDUSTRY ACADEMY COOPERATION …, priority 2016, dated 2019).

In data set [1] the test system is HeLa cells. The experiment in a line: Evaluation of cellular uptake of ibuprofen conjugate (confocal fluorescence). Type of data set: cell-based. To be noted: 10 μM, 37° C., 30 min, confocal laser scanning microscope. As to the method:
HeLa cells were cultured at 37° C. in wet air containing 5% CO2 in a DMEM (high-glucose Dulbecco's Modified Eagle's Medium) containing penicillin-added 10% (v/v) FBS (fetal bovine serum). Subculturing was performed every 2 to 3 days until the cells became subconfluent.
HeLa cells (1×10^5 cells per well) were seeded on a 35 mm coverglass dish (SPL Ltd., Korea) and cultured for 24 hr, after which the medium was removed, and the HeLa cells were washed with cold PBS (×1) (Dulbecco's phosphate buffered saline, pH 7.4). The resulting cells were cultured at 37° C. for 30 min in 3 ml of DMEM containing 10 μM Compound 8 or 10 μM Compound 9, after which the medium was removed, and the HeLa cells were washed five times with cold PBS. The intracellular internalization and intracellular localization of the compound were investigated through fluorescence, achieved using fluorescein, using a confocal laser scanning microscope (Olympus Fluoview FV1000, N.A. 1.30, 40×, planApo, oil immersion lens). The fluorescence of FITC was analyzed at an excitation wavelength of 488 nm and an emission wavelength of 500 to 530 nm, and all experiments were performed three times.

The nature of data set [2]: Plasma stability test (HPLC). To be noted: human plasma, 37° C. The data set is classed as in vitro ADME. As to the method: In order to evaluate plasma stability, a homogeneous solution of Compound 8 ([…]) was prepared. An aliquot thereof was injected into the plasma (human, Sigma, USA) so as to reach a final concentration of 50 μg/ml, followed by vortexing and culturing at 37° C. for 0, 3, 6, 9, 12, 15, 18, 21 and 24 hr. The plasma solution (200 μl) was then mixed with 1 ml of MeOH to prevent hydrolysis of Compound 8. This solution was added with biotin (internal standard) in distilled water (100 μl, 5 μg/ml) and centrifuged at 2000 rpm for 10 min. The supernatant was collected and dried in air. The residue was dissolved in distilled water (2 ml) and centrifuged at 2000 rpm for 10 min. The supernatant thus obtained was analyzed using HPLC through the following method.
10 μl of the clean supernatant obtained through the above method was introduced into the HPLC system. The UV detector was set at 260 nm and the flow rate was 1.0 ml/min for a running time of 10 to 15 min. The isocratic mobile phase system consisted of MeOH/H2O (30/70), and the column oven was maintained at 37° C. using a C18-column (Agilent, ZORBAX, 4.6×250 mm, 5 μm).
HPLC chromatograms were obtained at each interval, and the remaining amount of Compound 8 was calculated and expressed as a percentage by subtracting the concentration of ibuprofen, released based on the area under the curve, from the sum of the initial concentration of Compound 8 and the internal standard.

Data set [3] can be described thus: In-vivo distribution in mouse tissue (fluorescence imaging of tissue flakes). To be noted: 94.6 mg kg^−1 intraperitoneal, after 20 min.
Protocol: After 20 min, the mice administered with the above solution were perfused with PBS (pH 7.4) containing paraformaldehyde (4%), and the main organs (brain, heart, lungs, kidneys, spleen and liver) thereof were cultured overnight in PBS (phosphate buffered saline) containing sucrose (0.5 M). A cryoprotectant was added thereto and the above tissue was cut into 15 μm flakes using a cryostat, transferred to a coated slide glass and then dried. Each flake was washed with PBS, treated with Triton X-100 (0.3%) at room temperature for 15 min, and analyzed using an Axioplan2 fluorescence imaging microscope. As a control, deionized water (500 μl) was injected into other mice, and the same procedures as above were performed, after which the compound represented by green fluorescence of FITC in each tissue was compared with autofluorescence of the control.

Turning to `CC(C)Cc1ccc(C(C)C(=O)NCC(=O)OC[C@H](OC(=O)CCCCCN(CCCNC(=N)N)CCCNC(=N)N)[C@@H](OC(=O)CCCCCN(CCCNC(=N)N)CCCNC(=N)N)[C@H](OC(=O)CCCCCN(CCCNC(=N)N)CCCNC(=N)N)[C@@H](COC(=O)CCCCCNC(=S)Nc2ccc3c(c2)C(=O)OC32c3ccc(O)cc3Oc3cc(O)ccc32)OC(=O)CCCCCN(CCCNC(=N)N)CCCNC(=N)N)cc1.Cl.Cl.Cl.Cl.Cl.Cl.Cl.Cl` (stereo partly drawn) [Compound 8, 1-O-(2-aminoacetoxy-ibuprofen)-2,3,4,5-tetra-O—[N-{bis-(3-guanidinopropyl)}-6-aminohexanoyl]-6-O-[6-(fluoresceinyl-5-thioureido)-hexanoyl]-D-sorbitol 8HCl], the “cellular uptake / intracellular FITC fluorescence” value in data set [1] is recorded as “strong green fluorescence that is predominant in the cytoplasm”. For the same molecule, the “hydrolysis relative to the initial time (0 hr)” value in data set [2] (50 μg/ml, after culture for 3 hr) was “about 5%”. For the same molecule, the “decrease of the amount remaining” value in data set [2] (50 μg/ml, next culture time of 21 hr (3 to 24 hr)) is recorded as approximately 8%. In addition, the “half-life and stability in the plasma (in words)” value in data set [2] (up to 24 hr) was “long half-life and considerable stability”.

Take “fluoresceinyl (S)-2-(2-(4-isobutylphenyl)propanamido)-acetate [Compound 9]”: the “distribution in brain (green fluorescence of FITC)” value in data set [3] was “not distributed in the brain”. For the same molecule, in data set [1], the “cellular uptake / intracellular FITC fluorescence” value was “did not show fluorescence in the cells”.
